# Measurements as given in US8241627B2, “Modified polypeptides stabilized in a desired conformation and methods for producing same” (The Center for Blood Research, Inc., priority 2000, dated 2012).
# B1: wild-type I-domain: wild-type αL I-domain, soluble recombinant or expressed on K562 surface via PDGFR transmembrane domain (protein)
# chain: GNVDLVFLFDGSMSLQPDEFQKILDFMKDVMKKLSNTSYQFAAVQFSTSYKTEFDFSDYVKRKDPDALLKHVKHMLLLTNTFGAINYVATEVFREELGARPDATKVLIIITDGEATDSGNIDAAKDIIRYIIGIGKHFQTKESQETLHKFASKPASEFVKILDTFEKLKDLFTELQKKIY
# What was measured:
# ICAM-1 [1] = target: T1, ICAM-1 (Homo sapiens, UniProt P05362); assay: BIAcore binding of soluble αL I-domains to ICAM-1
# Procedure: Briefly, recombinant mutant αL I-domain stabilized in the open conformation (K287C/K294C), or recombinant wild-type αL I-domain from amino acid residue G128 to Y307, were cloned into pET11b (Novagen) and expressed in E. coli induced with 1 mM IPTG for 4 hours. The recombinant proteins were purified from inclusion bodies by solubilization of inclusion bodies in 6M guanidine HCl and were refolded by dilution in the presence of 0.1 mM Cu^2+/phenanthrolin to enhance formation of disulfide bonds. Protein was concentrated by ammonium sulfate precipitation, dialyzed, and purified over a monoQ ion-exchange column. […] The recombinant proteins were then purified by gel filtration and concentrated by Centriprep. For BIAcore™ analysis, recombinant ICAM-1, ICAM-2 and ICAM-3 Fc chimeras were immobilized on the BIAcore™ sensor chip by an amine-coupling method. Recombinant αL I-domains were flowed in, and BIAcore™ assays were performed with Tris-buffered saline supplemented with 1 mM MgCl2 or 2 mM EDTA, at a flow rate of 10 μl/minute at 25° C.
# Target sequence in this assay (P05362 28-480 limits assumed): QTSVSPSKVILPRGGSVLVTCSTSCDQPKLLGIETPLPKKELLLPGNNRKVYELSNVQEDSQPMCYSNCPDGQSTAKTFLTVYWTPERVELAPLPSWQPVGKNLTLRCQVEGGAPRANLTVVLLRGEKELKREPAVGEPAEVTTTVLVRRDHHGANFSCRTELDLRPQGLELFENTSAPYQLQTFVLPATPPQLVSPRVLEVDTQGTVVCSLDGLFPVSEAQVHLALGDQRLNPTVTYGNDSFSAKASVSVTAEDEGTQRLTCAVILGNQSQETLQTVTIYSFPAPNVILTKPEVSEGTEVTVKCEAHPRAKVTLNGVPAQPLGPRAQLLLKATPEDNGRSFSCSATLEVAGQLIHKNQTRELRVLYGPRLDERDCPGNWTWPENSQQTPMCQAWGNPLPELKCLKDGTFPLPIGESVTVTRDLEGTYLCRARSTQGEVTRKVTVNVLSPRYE
# [2] = test system: T-lymphocytes in peripheral lymph node high endothelial venules; assay: Intravital microscopy of lymphocyte behaviour in peripheral lymph node high endothelial venules; format: in vivo; conditions: mouse
# Procedure: Moreover, the ability of the open I-domain mutants to inhibit LFA-1 function in vivo was tested by visualizing microcirculation in the peripheral lymph node (LN) with intravital microscopy. Briefly, a small bolus (20-50 µl) of LN cell suspensions from […] mice were retrogradely injected through a femoral artery catheter and visualized in the subiliac LN by fluorescent epi-illumination from a video-triggered xenon arc stroboscope. After recording control […] cell behavior in the absence of 1-domain, the mouse was pretreated by intra-arterial injection of 1-domain (10 µg/g of weight) 5 minutes before T^GFP cell injection. All scenes were recorded on videotape and off-line analysis was done. The rolling fraction was calculated as percentage of rolling cells amount the total number of TGFβ cells that entered a venule. The sticking (firm adhesion) fraction was determined as the percentage of T^GFP cells becoming firmly adherent for >20 seconds in the number of T^GFP cells that rolled in a venule. Results were semi-quantitatively scored as follows: −: 0%, .+−.: 0-5%, +: 5-20%, ++: 20-40%, +++: 40-60%, ++++: 60-80%, +++++:80-100%.
# ICAM-1 [3] = target: T1, ICAM-1; assay: Binding of LFA-1 or isolated I-domain transfectants to immobilized ICAM-1; format: cell-based; design: ICAM-1 was purified from human tonsil; from tissue; host or cells: human tonsil
# Procedure: Clones of the transfectants that expressed similar levels of cell surface LFA-1, as determined by flow cytometry using monoclonal antibody TS2/4 (FIG. 3B), were tested for their ability to bind to immobilized ICAM-1, as previously described (Lu, C and Springer, T A (1997) J Immunol 159:268-278).
# Briefly, ICAM-1 was purified from human tonsil, and coated to 96-well plates as described previously (Lu, C and Springer T A, (1997) J Immunol 159:268-278). Cells were labeled with a florescence dye 2′,7′-bis-(carboxyethyl)-5(and-6)-carboxyfluorescein, acetoxymethyl ester (BCECF-AM), and resuspended to 1×10^6/ml in L15/FBS. 50 μl cell suspension was mixed in ICAM-1 coated wells with an equal volume of L15/FBS in the absence or presence of monoclonal antibody (CBRLFA-1/2, 10 μg/ml). Monoclonal antibodies were used at final concentration of 1:20 hybridoma supernatant, 1:200 ascites, or μg/ml purified IgG. For testing the effect of divalent cations, BCECF-AM-labeled cells were washed 2× with TS buffer, pH7.5 (20 mM Tris, pH 7.5, 150 mMNaCl) containing 5 mM EDTA, followed by 2 washes with TS buffer, pH7.5. Cells were then resuspended to 5×10^5/ml in the TS buffer, pH7.5 supplemented with 1 mM MgCl2/CaCl2, MgCl2, MnCl2 mM EDTA, and 100 μl cell suspension was added to ICAM-1 coated wells. After incubation at 37° C. for 30 minutes, unbound cells were washed off on a Microplate Autowasher (Bio-Tek Instruments, Winooski, Vt.). The fluorescence content of total input cells and the bound cells in each well was quantitated on a Fluorescent Concentration Analyzer (IDEXX, Westbrook, Me.). The bound cells were expressed as a percentage of total input cells per sample well.
# For generating stable K562 transfectants that express the I-domain on the surface, 20 μg of SspI-linearized pcDNA3.1/Hygro(+) containing the sequences encoding the I domain and the PDGFR transmembrane domain was used to transfect K562 cells by electroporation as described above. Transfectants were selected for resistance to 100 μg/ml hygromycin B, and were further subcloned by cell sorting and limiting dilution; clones that expressed similar levels of surface wild-type and mutant I domain-PDGFR were selected for functional studies. Stable cell lines were maintained in RPMI medium 1640 supplemented with 10% FBS and 100 μg/ml hygromycin B. Cell surface expression of the isolated I-domains was determined by flow cytometry using antibody TS1/22 to the I-domain (FIG. 7). Two clones from each transfectant were selected and tested for binding to immobilized ICAM-1, and similar results were obtained with each of the two clones (FIG. 8A).
# If the constitutive ligand binding activity of mutant K287C/K294C is due to the formation of a disulfide bond between the introduced C287 and C294, disruption of the disulfide bond with a reducing agent would abolish ligand binding ability of the mutant. Accordingly, the transfectants were treated with the reducing agent DTT (10 mM) in L15/FBS containing Mg^2+ and Ca^2+, and the ability of transfectants to bind to ICAM-1 was assessed.
# Furthermore, the effect of divalent cations on ligand binding of the isolated I-domains expressed on the surface of K562 transfectants was tested. The binding reactions were performed in HEPES/NaCl/glucose (20 mM HEPES, pH 7.5, 140 mM NaCl, 2 mg/ml glucose) supplemented with 1 mM […], 1 mM Mg^2+, or 1 mM EDTA.
# Target sequence in this assay (P05362 28-532): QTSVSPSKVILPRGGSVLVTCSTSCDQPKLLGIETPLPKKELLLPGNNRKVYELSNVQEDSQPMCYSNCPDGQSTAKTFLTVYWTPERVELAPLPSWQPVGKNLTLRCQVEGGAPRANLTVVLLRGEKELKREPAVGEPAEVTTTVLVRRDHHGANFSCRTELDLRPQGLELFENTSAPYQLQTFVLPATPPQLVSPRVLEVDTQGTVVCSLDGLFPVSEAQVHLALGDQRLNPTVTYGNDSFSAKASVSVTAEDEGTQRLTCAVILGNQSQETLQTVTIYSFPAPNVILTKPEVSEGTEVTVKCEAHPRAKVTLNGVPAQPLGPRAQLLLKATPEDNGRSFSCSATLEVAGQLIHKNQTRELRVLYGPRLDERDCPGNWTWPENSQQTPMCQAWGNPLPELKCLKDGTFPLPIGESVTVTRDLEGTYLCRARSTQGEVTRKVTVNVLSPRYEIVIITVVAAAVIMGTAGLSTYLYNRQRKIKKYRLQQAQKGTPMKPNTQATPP
molecule,measurement,setting,value
B1,Kd,"ICAM-1 [1]; Scatchard plots using data at steady states, read-out: KD, interaction of αL I-domains with ICAM-1",1.35 mM
same,"Kon, interaction of αL I-domains with ICAM-1",ICAM-1 [1]; calculated by Koff/KD,2220 M⁻¹ s⁻¹
same,"Koff, interaction of αL I-domains with ICAM-1","ICAM-1 [1]; curve fitting of dissociation phase, 1:1 binding model",3.00 s⁻¹
same,Fraction transmigration,[2]; intra-arterial I-domain 10 μg/g,± (.+−.: 0-5%)
same,Fraction Rolling,[2]; intra-arterial I-domain 10 μg/g 5 minutes before T-GFP cell injection,+++ (+++: 40-60%)
same,Fraction firm adhesion,"[2]; intra-arterial I-domain 10 μg/g, adherent >20 seconds",++ (++: 20-40%)
same,binding of K562 cells expressing isolated I-domains to immobilized ICAM-1,ICAM-1 [3]; I-domain on cell surface via PDGFR transmembrane domain,did not bind
same,effect of Mn2+ or Mg2+ on ligand binding of isolated I-domains,"ICAM-1 [3]; K562, 1 mM Mn2+ or Mg2+",did not activate ligand binding
same,effect of DTT treatment on binding to ICAM-1,"ICAM-1 [3]; K562 transfectants, DTT 10 mM in L15/FBS",did not affect binding
